# Test results: the nanobody polyreactivity screen of Harvey et al. (2022)
# Assay: yeast display, Sf9 membrane polyspecificity reagent, FACS + sequencing; frameworks hold sequencing errors
# Summary of the method: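 A nanobody's polyreactivity label depends on the gate it was sorted from. Yeast display cells were stained with 10% biotinylated, detergent-solubilized Sf9 membrane reagent for 1 hour at 4 °C, enriched on streptavidin microbeads and sorted by FACS. The low and high (top ~1%) gates were set on anti-HA fluorescence for expression and streptavidin fluorescence for reagent binding.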
row,Sequence,polyreactivity (PSR sort gate)
1,QVQLVESGGGLVQAGGSLRLSCAASGSTFVPNAMGWYRQAPGKEREFVAAIRVSGDNTYYADSVKGRFTISRDNAKNTVYLQMNSLKPEDTAVYYCAATGTVLGSVDYWGQGTQVTVSS,low polyreactivity
2,QDPLVESGGGLVQAGGSLRLSCAASGRLFYRNPMGWYRQAPGKERELVAAISSSGGGTYADSVKGRFTISRDNAKNTVYLQMNSLKPEDTAVYYCAAGPFSYSHYGRKFYYWGQGTQVTVSS,high polyreactivity
3,QVQLVESGGGLVQAGGSLRLSCAATGSTFIFYAMGWYRQAPGKERELVAAISWSGGSTYYADSVKGRFTISRDNAKNTVYLQMNSLKPEDTAVYYCNARWSSWYIHSHYYYWGQGTQVTVSS,high polyreactivity
4,QVQLVESGGGLVQAGGSLRLSCAASGRTFVSYAMGWYRQAPGKERELVAGITWRGGSTYYADSVKGRFTISRDNAKNTVYLQMNSLTPEDTAVYYCAKRSVLYGNRIFDYWGQGTQVTVSS,high polyreactivity
5,QDQLVESGGGLVQAGGSLLLSCAASGLTVGRYAMGWYRQAPGKERELVAVINGSGGNTYYADSVKGRFTISRDHATNTVYLQMHSLKPEDTAVYYCNVDDWGQGTQVTVSS,low polyreactivity
6,QVQLVESGGGLVQAGGSLRLSCAASGRIFVTNAMGWYRQAPGNERELVAGLNRSGDITYYADSVKGRFTISRDNAKNTVYLQMNSLKPEDTAVYYCAVDFYVYRWSPYGDVYRYDYWGQGTQVTVSS,high polyreactivity
7,QVQLVESGGGLVQAGGSLRLSCAASGRTFNRNAMGWYRQAPGKERELVAAISWGGSRTYYADSVKGRFTISRDNAKNTVYLQMNSLKPEDTAVYYCAVDGFRGRSHGANDYWGQGTQVTVSS,high polyreactivity
8,QVQLVESGGGLVQAGVSLRLSCAASGITFVNNDMGWYRQAPGKERELVAAISSSGGSTYYADSVKGRFTISRDNAKNTDYLQMNSLKPEDTAVYYCAAPWYNAGRFRYYYWGQGTQVTVSS,high polyreactivity
9,QGQLVESGGGLVQAGGSLRLSCAASGLTFYYYARGWYRQAPGKERELVATISSRGGSTNYADSVKGRFTISRDNAKNTVYLQMNSLKPEDTAVYYCATDNSGYPRLNYWGQGTHVTVSS,high polyreactivity
10,QVQLVESGGGLVQAGGSLRLSCAASGSIFSYYAMGWSRQEHGKERELVAAITRSGSTNYADSVKGRFTISRDNAKNTVYLQMNSLKPEDTAVYYCARRHYSSRVIYVSSKGGYWGQGTQVTVSS,high polyreactivity
11,QVQLVESGGGLVQAGGSLRLSCAASGRTFPYYAMGWYRQAPGKERELVAAISSSGGSTYYADSVKGRFTISRDNAKNTVYLQMNSLKPEDTEVYYCAAVYQFIKWGDRYEYWGQGTQVTVSS,high polyreactivity
12,QVQLVESGGGLVQAGGSLRLSCAASGLIFPWNAMGWYRQAPGKERELVAAINGRDGSTYYADSVKGLFTISRDNAKNTVYLQMNSLKPEDTAVYYCAKGPSGVRTYREYDSWGQGPQVTVSS,low polyreactivity
13,QVQLVESGGGLVQAGGSLRLSCAASGRTFWFYTMGWYRKAPGKEREFVAAISSGGSTNYADSVKGRFTISRDNAKYSVYLQMNSLKPEDTALYYCNARFQVGQSEYAVWYYPKYDYWGQGTQVTVSS,low polyreactivity
14,QVQLVESGGGLVQAGGSLRLSCAASGSIFRIYAMGWYRQAPGKERELVAAISWTGGSTYYADSVKGRFTISRDNAKNTFFLQMNSLKPEDTAVYYCAARPRYKFSAYEYWGQGTQVTVSS,high polyreactivity
15,QVQLEESGGGLFQAGGSLRLSCAASGSTFVSNAMGWYRQAPGKDRELVAAISSSGGRTSYADSVKGRFTISRDNAKNTVYLQMNSLKPEDTAVYYCNRVSPGPDADLEFDYWGQGTQVTVSS,low polyreactivity
16,QVQLEESGGGLVQAGGSLRLSCAASGYIFRFYTMGWYRQAPGKERELVAAISSGGSTNYADSVKGRFTISRANAKNTVYLQMNSLKPEDTAVYYCAARFYSRYYWGQGTQVTVSS,low polyreactivity
17,QVQLVESGGGLVQAGGSLRLSCAASGSTFHGYDMGWYRQAPGKERELVAAITSSGDDTYYADSEKGRFTISLDNAKNTVYLQMNSLKPEDTAVYYCAAEYTEGYTHDYWGQGTQVTVSS,low polyreactivity
18,QVQLVESGGGLVQAGGSLRLSCAASGRTFNTYTMGWYRQAPGKERELVAAITGTGGSTFYADSVKGRFTISRDNAKNTVYLQMNSLKPEDTAVYYCNADLEGTIGVYTDGFDSDYWGQGTQVTVSS,low polyreactivity
19,QVQLVESGGGLVQAGGSLRLSCAASGLIFVVYAMGWYRQAPGKERELVAAISRSGGRTYYADSVKGRFTISRDNAKNTVYLQMNSLKPEDTAVYYCAARRYSTTFGRLFDYWGQGTQVTVSS,high polyreactivity
20,QVQLVESGGGLVQAGGSLRLSCAASGFTLDYYAMGLYRQAPGKERELVAAITSGSITYYADSVKGRFTISRDNAKNTVYLQMNSLKPEDTAVYYCAAVGLVRYGYWGQGTQVTVSS,high polyreactivity
21,QDQLVETGGGLVQAGGSLRLSCSASGSIFAAYTMGWYRQAPGKECELVATISSGGSTYYADSVKGRFTISRDNAKNTVYLQMNSLKPEDTAVYYCAAVAYTYTEYEYWGQGTQVTVSS,low polyreactivity
22,QVQLVESGGGLVQAGGILRLSCAASGSIFDVYAMGWYRQAPGKERELVAAINRGGSTNYADSVKGRFTISRDNAKNTVYLQMNCLKPEDTAVYYCAADIVWYVYNGYYWIFDYWGQGTQVTVSS,high polyreactivity

row,Sequence,polyreactivity (PSR sort gate)
1,QVQLLESGGGLVQAGGCLRLRCAASVRTFEQNAMGWCRRAPGKERELVASITSVGSTDYADSVKGRFTISRDNAKNTVYLQMNSLKPEDTAGYYCAKTLGSQNYDFDYWGQGTQVTVSS,low polyreactivity
2,QVQLVESGGGLVQAGGSLRLSCAASGRTSDSYAMGWYRQAPGKERELVAVISRSGRTYYADSVKGRFTISRDNAKNTVYLQMNSLKPEDTAVYYCAAKWFRTWSGYWGQGTQVTVSS,high polyreactivity
3,QVQLVESGGGLVQAGGSLRLSCAASGRIFHSYVMGWYRQAPGKERELVARISSGGRTNYADSVKGRFTISRDNAKNSVYLQMNSLKPEDTAVYYCAATRLYPRSRYDYWGQGTQVTVSS,high polyreactivity
4,QVQLVESGGGLVQAGGSLRLSCAASGSTCWSNAMGWYRQAPGKERELVAGISWSDGSTYADSVKGRFTISRDNAKNTVYLQMNSLKPEDTAVYYCAAADNYRGYTYEYDYWGQGTQVTVSS,low polyreactivity
5,QVQLVESAGGLVQAGGSLRLSCAASGRIFGYNAMGWYRQAPGKERELVAVITYSGGSTYYADSVKGRFTISRDNAKNTVYLQMNSLKPEDTAVYYCAKATTWGYFRVWSTRYYYWGQGTQVTVSS,low polyreactivity
6,QVQLVESGGGLVQAGGSLRLSCAASGIIFYDYAMGWYRPAPGKERELVAAINYSGGSTYYADSVKGRFTISRDNAKNTVYLQMNSLKPEDTAVYYCAADNAVWEYDYWGQGSQVTVSS,low polyreactivity
7,QVQLVESGGGLVQAGGSLRLICAASGRTFRYNAMGWYRQAPGKERELVASITSGGSTNYADSVKGRFTISRDHAKNTVYLQMNSLKPEDTAVYYCAKDHYYRYEDGDYWGQGTQVTVSS,low polyreactivity
8,QVQLVESGGGLVQAGGSLRLSCAASGGTFEYNAMGWYRPAPGKERELVAAISKSGGRTYYADSVKGRFTISRDNAKNTVYLQMNSLKPEDTAVYYCAKRYVWGQGTQVTVSS,high polyreactivity
9,QVQLVESGGGLVQAGGRLRLSCAAYGSIFDFYAMGWYRQAPGKERELVAAISGSGGSTYYADSVKGRFTISRDNAKNTVYLQMNSLKPEDTEVYYCSYYYWGQGTQETVSS,low polyreactivity
10,QVQLVESGGGLVQAGGSLRLSCAASGSTFQPYAMGWYRQAAGNEREFVATISGSAGSTNYADSVKGRFTTSRDNAKSTVYLQMNSLKPEDTALYYCNALYRYLYRSGDYWGQGNQVTVSS,low polyreactivity
11,QVQLQESGDGLVQAVGSLRLSCAARGYISGYYYMGWYRQAPGKERELVAGIDAFGSSTNYADCVKGRFTISRDNAKNTVYLQMNSLKPEDTAVYYCAARPDGDRLFSYWGQGTQVTVSS,low polyreactivity
12,QVQLVESGGGLVQAGGSLRLSCAASGFTFWTYAMGWYRQAPGKERELVAAIDSGGSTYYADSVKGRFTISRDNAKNTVFLQMNSLKPEDTAVYYCIAGPSVTSGYDYDYWGQGTQVTVSS,low polyreactivity
13,QVQLVESGGGLVQAGGSLRLSCAASGIILSDNAMGWYRQAPGKEREIVAAITGSGGSTYYADSVKGRFTISRDNAKNTVYLQMNSLKPEDTAVYYCAADGPYGYYYGHYGYWGQGTQVTVSS,low polyreactivity
14,QVQLVESGGGLVQAGGSLRLSCAASGSISDTYGMGWYRQAPGKERELVASITWSSGSTDYADSVKGRFTISRDNAKNTVYLQMNSLKPAETAVYYCATYEPFYSFIFRGIYDYWGQGTQVTVSS,low polyreactivity
15,QVQLVESGGGLVQAGGSLRLSCAASGSIFYVNTMGWYRQAPGKERELVAVIDYGGDSTYYADSVKGRFTISRDNAKNTVYLQMNSLKPEDTAVYYCAADAWLLPYNYWGQGTQVTVSS,low polyreactivity
16,QVQLVESGGGLVQAGGSLRLSCAASGSTFYTNAMGWYRQAPGKERELVAAISYGGGSTYYADSVKGRFTISRDNAKNTVYLQMHSLKPEDTAVYYCAARAPEKSWWRYRYGYWGQGTQVTVSS,high polyreactivity
17,QVQLVESGGGLVQAGGSLRLSCAASGSIFFGNAMGWYRQAPGKERELVAAISTTGGSTYYADSVKGRFTISRDNAKNTVYLQMISLKPEDTAVYYCNADRATWWEQWWYDYWGQGTQVTVSS,low polyreactivity
18,QVQLVESGGGLVQAGGSLRLSCAASGRIFGMYTKGWYRQETGKETELVAAINTGGSTYYADSVKGRFTISRDNAKNTVYLQMNSLKPEDTAVYYCNAETGWPWIYHYDYWGQGTQVTVSS,low polyreactivity
19,QVQLVESGGGLVQAGGSLRLSCAASGSIFPHNTMGWYRQAPGNERELVAAISRSGGSTYYADSVKGRFTISRDNAKNTVYLQMNSLKPEDTAVYYCARDSYDVGHQVVSDERLYDYWGQGTQVTVSS,low polyreactivity
20,QVQLVESGGGLVQAGGSLLLSCAASGSIYSYYAMGWYRQAPGKERELVAAISQSGGTTYYADSVKGRFTISRDNAKNTVYLQMNSLKPEDTAVYYCAARATSSFDTQYYYWGQGTQVTVSS,low polyreactivity
21,QVQLVESGGGLVQAGGSLRLSCAASGRTIYQYAMGWYRQAPGKERELVAAITDNGGRTYYADSVKGRFTISCDNAKNTVYLQMNSLKPEDTAVYYCAAEIWTYSYYVVDNGPYDYWGQGTQVTVSS,low polyreactivity
